From paper doi:10.1101/2022.06.14.496144, “Crystal structure and functional peculiarities of a primordial Orange Carotenoid Protein (OCPX)” (bioRxiv, 2022)

Molecular target: T1, SynOCP1 lacking the N-terminal extension (ΔNTE-SynOCP1) (Synechocystis sp. PCC 6803, UniProt P74102 13-317)
T1 construct: Orange Carotenoid Protein of Synechocystis sp; PCC 6803 (Uniprot P74102) lacking residues M1-F12 from the N-terminus; also called SynOCP1 ΔNTE mutant; source: E. coli C41(DE3) synthesizing echinenone, purified (subtractive IMAC, SEC)
T1 sequence (looked up): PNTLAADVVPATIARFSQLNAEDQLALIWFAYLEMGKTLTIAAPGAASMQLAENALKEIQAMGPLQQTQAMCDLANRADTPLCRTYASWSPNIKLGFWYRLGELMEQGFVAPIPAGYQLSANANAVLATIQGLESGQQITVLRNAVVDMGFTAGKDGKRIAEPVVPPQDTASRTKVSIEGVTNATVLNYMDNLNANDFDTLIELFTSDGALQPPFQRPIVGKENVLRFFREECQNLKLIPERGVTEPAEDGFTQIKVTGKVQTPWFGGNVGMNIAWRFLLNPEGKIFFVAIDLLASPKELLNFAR
Assay: SEC; spectrochromatography on Superdex 200 Increase 5/150 with diode-array detection; ΔNTE-OCP 20 μM mixed with FRP 40 μM; 20 mM Tris-HCl pH 7.6, 150 mM NaCl; absorbance spectrum ('oranging') read in the same runs
Conditions: both partners purified

binding result: binds
B1: Fluorescence Recovery Protein from Synechocystis (SynFRP) (natural protein, UniProt P74103 1-109, looked up)
chain: MLQTAEAPWSQAETQSAHALFRKAYQRELDGLLATVQAQASQITQIDDLWKLHDFLSAKRHEIDGKYDDRQSVIIFVFAQLLKEGLVQAEELTFLAADKQSKIKALARL
notes: Fluorescence Recovery Protein of Synechocystis (Uniprot P74103); source: E. coli C41(DE3), purified (subtractive IMAC, SEC)
